Assay results from paper PMC6366636.

How the values were obtained:
[1] = molecular target: Fluorescently labeled EC12 probe (EC12 A36C/Y44W conjugated with Alexa-488) (Manduca sexta); assay: native gel or EMSA
[2] = molecular target: Cry1Ab toxin of Bacillus thuringiensis subsp. berliner 1715 (trypsin-activated) (Bacillus thuringiensis subsp. berliner 1715) (UniProt P0A370); assay: native gel or EMSA

Cry1Ab toxin of Bacillus thuringiensis subsp. berliner 1715 (trypsin-activated) (from UniProt P0A370 1-1155) (natural protein)
Kd [1]: 19.5 nM

EC12_(SQ/AA) (alanine substitution of the serine-glutamine dipeptide in EC12) (domain or fragment)
decrease of the capacity to compete with the EC12 probe, against EC12WT [2]: 50%
